The results in this text go back to patent publication US10772909B2, “System and method for insulin-mimetic of cartilage, bone, or osteochondral repair and piezoelectric composite scaffold” (New Jersey Institute of Technology, priority 2016, dated 2020).

For the data set, the system named is PBMCs. The experiment in a line: PBMC proliferation assay (3H-TdR incorporation). In kind it is cell-based, human. The conditions noted are these: positive control, 1% PHA. The text has this:
Peripheral blood was obtained from four healthy subjects, two males and two females (ages 18-30 years old). Peripheral blood mononuclear cells (PBMCs) were isolated by Ficoll Hypaque (Sigma-Aldrich) gradient separation. Human MSCs were obtained from human bone marrow aspirates (Lonza, Walkersville, Md., USA) from four healthy subjects, two males and two females, ages 18-30 years old, according to previously published protocols and cryopreserved before use. Human MSCs were characterized for the expression of surface markers CD29, CD44, CD73, CD90, and CD105 and lack expression of CD14, CD34 and CD45 as determined by flow cytometry. The differentiation potency was determined by the differentiation of MSCs into osteoblasts, adipocytes and chondrocytes in vitro [32,33]. […]
The cytotoxicity of Na2WO4 was examined using PBMCs. Cell proliferation was measured using tritiated thymidine (^3H-TdR) incorporation as described in Kapoor et al.. […]
After 16 h, the cells were harvested on glass fiber filters (Cambridge Technology, Inc.) using a cell harvester (EMD Millipore). […] The radioactive incorporation of ^3H-TdR in the cells was measured using a liquid scintillation counter (Beckman; Fullerton, Calif., USA). The stimulation index (SI) was calculated as disintegration per minute (dpm) of treated group/dpm of unstimulated PBMCs (0 mM).

phytohemagglutinin [PHA]: the “stimulation index (SI)” value is reported as 11.5±1.2.
